From PMC4006922, “The Human Adenovirus E4-ORF1 Protein Subverts Discs Large 1 to Mediate Membrane Recruitment and Dysregulation of Phosphatidylinositol 3-Kinase” (PLoS Pathogens, 2014)

Molecular target: T1, purified, catalytically-active recombinant human p85α:p110α heterodimer (human, UniProt P27986 1-724; P42336 1-1068)
T1 construct: human PI3K regulatory subunit p85α; human PI3K catalytic subunit p110α; also called recombinant human PI3K; purified recombinant PI3K protein; source: bought: SignalChem (co-expression in Sf9 cells, >90% pure)
Assay: pull-down; purified recombinant human PI3K (1 µg) with GST or GST-Ad9 E4-ORF1 on glutathione-sepharose beads; immunoblot with p85α and p110α antibodies
Settings: both partners purified

T1 sequence (P27986 whole entry, chain 1 of 2): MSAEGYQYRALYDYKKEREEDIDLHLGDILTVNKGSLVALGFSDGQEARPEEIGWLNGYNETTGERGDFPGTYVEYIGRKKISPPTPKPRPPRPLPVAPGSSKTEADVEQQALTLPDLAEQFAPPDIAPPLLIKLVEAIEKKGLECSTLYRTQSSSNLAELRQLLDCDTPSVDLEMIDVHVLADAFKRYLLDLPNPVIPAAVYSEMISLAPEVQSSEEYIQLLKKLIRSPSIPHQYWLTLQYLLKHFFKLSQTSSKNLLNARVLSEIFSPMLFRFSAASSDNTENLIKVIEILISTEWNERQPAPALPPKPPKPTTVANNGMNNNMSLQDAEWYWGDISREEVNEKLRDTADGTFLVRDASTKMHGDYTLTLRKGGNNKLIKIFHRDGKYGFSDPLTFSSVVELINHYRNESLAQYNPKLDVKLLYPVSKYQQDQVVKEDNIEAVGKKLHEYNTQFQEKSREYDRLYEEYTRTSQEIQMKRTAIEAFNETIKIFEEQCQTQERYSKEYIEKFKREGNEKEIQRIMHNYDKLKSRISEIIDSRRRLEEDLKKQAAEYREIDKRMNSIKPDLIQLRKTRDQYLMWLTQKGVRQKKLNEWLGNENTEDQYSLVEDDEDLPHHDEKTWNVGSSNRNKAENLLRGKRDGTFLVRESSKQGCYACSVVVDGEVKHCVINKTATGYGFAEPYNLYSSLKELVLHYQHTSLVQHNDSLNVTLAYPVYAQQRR
T1 sequence (P42336 whole entry, chain 2 of 2): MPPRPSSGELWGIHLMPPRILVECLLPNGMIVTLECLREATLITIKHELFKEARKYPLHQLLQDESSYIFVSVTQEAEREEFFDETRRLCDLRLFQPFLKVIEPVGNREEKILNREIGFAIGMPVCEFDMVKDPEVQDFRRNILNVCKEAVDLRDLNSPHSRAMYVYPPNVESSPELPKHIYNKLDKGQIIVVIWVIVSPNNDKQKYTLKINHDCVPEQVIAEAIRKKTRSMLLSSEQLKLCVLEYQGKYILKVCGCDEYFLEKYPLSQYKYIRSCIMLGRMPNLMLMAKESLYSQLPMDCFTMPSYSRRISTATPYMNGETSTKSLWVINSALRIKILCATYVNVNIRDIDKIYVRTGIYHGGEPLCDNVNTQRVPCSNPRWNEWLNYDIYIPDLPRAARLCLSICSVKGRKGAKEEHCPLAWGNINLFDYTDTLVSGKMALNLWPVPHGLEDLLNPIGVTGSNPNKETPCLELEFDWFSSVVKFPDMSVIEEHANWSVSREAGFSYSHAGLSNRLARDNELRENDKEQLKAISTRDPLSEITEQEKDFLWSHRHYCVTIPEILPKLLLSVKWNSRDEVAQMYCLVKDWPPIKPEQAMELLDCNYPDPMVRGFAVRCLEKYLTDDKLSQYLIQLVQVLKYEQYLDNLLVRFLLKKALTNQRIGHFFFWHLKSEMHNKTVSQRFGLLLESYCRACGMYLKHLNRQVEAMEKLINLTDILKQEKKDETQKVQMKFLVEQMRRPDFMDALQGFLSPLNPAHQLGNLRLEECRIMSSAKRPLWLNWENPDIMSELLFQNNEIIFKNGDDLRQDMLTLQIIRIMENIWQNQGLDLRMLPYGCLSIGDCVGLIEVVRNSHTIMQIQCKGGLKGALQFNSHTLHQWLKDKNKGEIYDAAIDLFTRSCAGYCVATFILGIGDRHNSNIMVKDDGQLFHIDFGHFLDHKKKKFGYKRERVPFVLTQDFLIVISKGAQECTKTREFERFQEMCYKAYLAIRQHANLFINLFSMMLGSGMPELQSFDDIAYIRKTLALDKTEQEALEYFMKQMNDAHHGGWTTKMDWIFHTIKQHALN

B1: GST-Ad9 E4-ORF1 fusion protein (natural protein)
chain: MAESLYAFIDSPGGIAPVQEGTSNRYTFFCPESFHIPPHGVVLLHLKVSVLVPTGYQGRFMALNDYHARDILTQSDVIFAGRRQELTVLLFNHTDRFLYVRKGHPVGTLLLERVIFPSVKIATLV
notes: Human adenovirus type 9 (Ad9) E4-ORF1 protein, wild type; also called GST-E4-ORF1; glutathione S-transferase (GST) fused to Ad9 E4-ORF1; source: bacterially expressed fusion protein (plasmid pGEX-2TK with wt E4-ORF1 cDNA), on glutathione-sepharose beads
Q: Does B1 bind?
A: Result: binds
